In the data set the test system is C=C(OP(=O)(O)O)C(=O)O. The data set can be described thus: Steady-state ATP production by pyruvate kinase monitored by Rho-MatB. The class given is biochemical, rabbit. The following applies: pH 7.5.
Setting [1] is: other: single curve fit, Figure 6B, 250 μM ADP, 20 °C.

What is called Km is the substrate concentration at which the rate is half of its maximum. In the case of pyruvate kinase (Oryctolagus cuniculus), the Km (other: n = 5, 20.0 °C) is 103 µM. For the same substance, under setting [1], the Km came to 75.5 ± 3.4 µM and the Vmax is reported as 0.019 ± 0.002 μM s^–1.

Values taken from PMC4655421.
